US20230105714A1
Values belong to the molecule of their own block, whether it stands above or below them.

Experiments:
[1] = biological target: cynomolgus TIM-3 ECD Fc fusion (made in-house) (cynomolgus monkey (Macaca fascicularis); human); test: SPR (IBIS MX96), TIM-3 ECD-Fc captured, Fab injected 1-100 nM, 1:1 fit
[2] = biological target: cynomolgus TIM-3 Fc fusion antigen (Sino Biologicals) (cynomolgus monkey); test: ELISA, TIM-3 Fc fusion coated at 1 ug/ml, antibody titrated from 1000 nM
[3] = biological target: cynomolgus TIM-3 Fc fusion antigen (Sino Biologicals) (cynomolgus monkey); test: ELISA, EC50 on cynomolgus TIM-3 against EC50 on human TIM-3

Chain of cynomolgus TIM-3 Fc fusion antigen (Sino Biologicals) (cynomolgus monkey) (chain, as listed by the source limits assumed): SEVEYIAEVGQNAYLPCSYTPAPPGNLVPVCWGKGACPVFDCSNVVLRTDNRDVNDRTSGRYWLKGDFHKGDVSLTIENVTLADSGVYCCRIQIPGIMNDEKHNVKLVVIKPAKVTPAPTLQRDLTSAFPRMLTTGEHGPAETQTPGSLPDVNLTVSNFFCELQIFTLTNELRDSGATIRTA
Chain of cynomolgus TIM-3 ECD Fc fusion (made in-house) (cynomolgus monkey (Macaca fascicularis); human) (chain, as listed by the source limits assumed): as above

- Kd [1]: 25 nM
Molecule: Fab fragment of 18564 ABTIM3 (reference analogue)

- EC50 [2]: 9.42 nM
- Ratio Cynomolgus/Human EC50 [3]: 47
B1: antibody 19416 (antibody, V domains shown)
VH: QVQLVESGPGLVKPSQTLSLTCTVSGGSINSGGYYWSWIRQHPGKGLEWIGYIYYSGSIYYNPSLRSRLTISVDTSKNQFSLKLSSVTAADTAVYYCATPYYYGSGSYGDYWGQGTLVTVSS
VL: DIQMTQSPATLSLSPGERATLSCRASQSVNNYLAWYQQKPGQAPRLLIYDASNRATGIPARFSGSGSGTDFTLTISSLEPEDFAVYYCQQRSNWPITFGQGTRLEIK
